In patent publication US20150132821, “Systems and Methods for Improving Nuclease Specificity and Activity” (Georgia Tech Research Corporation, published 2015):

How the values were obtained:
[1] = tested on: S-22 NK-TALEN (synthetic); assay: cell_activity; conditions: monomer SSA assay
[2] = tested on: S-12 NK-TALEN (synthetic); assay: cell_activity; conditions: monomer SSA assay
[3] = tested on: S-08 NK-TALEN (synthetic); assay: cell_activity; conditions: monomer SSA assay
[4] = tested on: S-35 NK-TALEN (synthetic); assay: cell_activity; conditions: monomer SSA assay
[5] = tested on: S-36 NK-TALEN (synthetic); assay: cell_activity; conditions: monomer SSA assay
[6] = tested on: S-27 NK-TALEN (synthetic); assay: cell_activity; conditions: monomer SSA assay
[7] = tested on: S-29 NK-TALEN (synthetic); assay: cell_activity; conditions: monomer SSA assay
[8] = tested on: S-28 NK-TALEN (synthetic); assay: cell_activity; conditions: monomer SSA assay
[9] = tested on: S-09 NK-TALEN (synthetic); assay: cell_activity; conditions: monomer SSA assay
[10] = tested on: S-41 NK-TALEN (synthetic); assay: cell_activity; conditions: monomer SSA assay
[11] = tested on: S-39 NK-TALEN (synthetic); assay: cell_activity; conditions: monomer SSA assay
[12] = tested on: S-03 NK-TALEN (synthetic); assay: cell_activity; conditions: monomer SSA assay
[13] = tested on: S-34 NK-TALEN (synthetic); assay: cell_activity; conditions: monomer SSA assay
[14] = tested on: S-38 NK-TALEN (synthetic); assay: cell_activity; conditions: monomer SSA assay
[15] = tested on: S-11 NK-TALEN (synthetic); assay: cell_activity; conditions: monomer SSA assay
[16] = tested on: S-17 NK-TALEN (synthetic); assay: cell_activity; conditions: monomer SSA assay
[17] = tested on: S-21 NK-TALEN (synthetic); assay: cell_activity; conditions: monomer SSA assay
[18] = tested on: S-23 NK-TALEN (synthetic); assay: cell_activity; conditions: monomer SSA assay
[19] = tested on: S-13 NK-TALEN (synthetic); assay: cell_activity; conditions: monomer SSA assay
[20] = tested on: S-43 NK-TALEN (synthetic); assay: cell_activity; conditions: monomer SSA assay
[21] = tested on: S-31 NK-TALEN (synthetic); assay: cell_activity; conditions: monomer SSA assay
[22] = tested on: S-42 NK-TALEN (synthetic); assay: cell_activity; conditions: monomer SSA assay
[23] = tested on: S-40 NK-TALEN (synthetic); assay: cell_activity; conditions: monomer SSA assay
[24] = tested on: S-26 NK-TALEN (synthetic); assay: cell_activity; conditions: monomer SSA assay
[25] = tested on: S-04 NK-TALEN (synthetic); assay: cell_activity; conditions: monomer SSA assay
[26] = tested on: S-32 NK-TALEN (synthetic); assay: cell_activity; conditions: monomer SSA assay
[27] = tested on: S-44 NK-TALEN (synthetic); assay: cell_activity; conditions: monomer SSA assay
[28] = tested on: S-30 NK-TALEN (synthetic); assay: cell_activity; conditions: monomer SSA assay
[29] = tested on: S-24 NK-TALEN (synthetic); assay: cell_activity; conditions: monomer SSA assay
[30] = tested on: S-19 NK-TALEN (synthetic); assay: cell_activity; conditions: monomer SSA assay
[31] = tested on: S-37 NK-TALEN (synthetic); assay: cell_activity; conditions: monomer SSA assay
[32] = tested on: S-16 NK-TALEN (synthetic); assay: cell_activity; conditions: monomer SSA assay
[33] = tested on: S-06 NK-TALEN (synthetic); assay: cell_activity; conditions: monomer SSA assay
[34] = tested on: S-18 NK-TALEN (synthetic); assay: cell_activity; conditions: monomer SSA assay
[35] = tested on: S-33 NK-TALEN (synthetic); assay: cell_activity; conditions: monomer SSA assay
[36] = tested on: S-20 NK-TALEN (synthetic); assay: cell_activity; conditions: monomer SSA assay
[37] = tested on: S-25 NK-TALEN (synthetic); assay: cell_activity; conditions: monomer SSA assay
[38] = tested on: S-15 NK-TALEN (synthetic); assay: cell_activity; conditions: monomer SSA assay
[39] = tested on: S-10 NK-TALEN (synthetic); assay: cell_activity; conditions: monomer SSA assay
[40] = target: T1, S-05 (S5) NK-TALEN (synthetic); assay: cell_activity; monomer SSA assay; conditions: tags: 3xFLAG, NLS, FokI
T1 chain: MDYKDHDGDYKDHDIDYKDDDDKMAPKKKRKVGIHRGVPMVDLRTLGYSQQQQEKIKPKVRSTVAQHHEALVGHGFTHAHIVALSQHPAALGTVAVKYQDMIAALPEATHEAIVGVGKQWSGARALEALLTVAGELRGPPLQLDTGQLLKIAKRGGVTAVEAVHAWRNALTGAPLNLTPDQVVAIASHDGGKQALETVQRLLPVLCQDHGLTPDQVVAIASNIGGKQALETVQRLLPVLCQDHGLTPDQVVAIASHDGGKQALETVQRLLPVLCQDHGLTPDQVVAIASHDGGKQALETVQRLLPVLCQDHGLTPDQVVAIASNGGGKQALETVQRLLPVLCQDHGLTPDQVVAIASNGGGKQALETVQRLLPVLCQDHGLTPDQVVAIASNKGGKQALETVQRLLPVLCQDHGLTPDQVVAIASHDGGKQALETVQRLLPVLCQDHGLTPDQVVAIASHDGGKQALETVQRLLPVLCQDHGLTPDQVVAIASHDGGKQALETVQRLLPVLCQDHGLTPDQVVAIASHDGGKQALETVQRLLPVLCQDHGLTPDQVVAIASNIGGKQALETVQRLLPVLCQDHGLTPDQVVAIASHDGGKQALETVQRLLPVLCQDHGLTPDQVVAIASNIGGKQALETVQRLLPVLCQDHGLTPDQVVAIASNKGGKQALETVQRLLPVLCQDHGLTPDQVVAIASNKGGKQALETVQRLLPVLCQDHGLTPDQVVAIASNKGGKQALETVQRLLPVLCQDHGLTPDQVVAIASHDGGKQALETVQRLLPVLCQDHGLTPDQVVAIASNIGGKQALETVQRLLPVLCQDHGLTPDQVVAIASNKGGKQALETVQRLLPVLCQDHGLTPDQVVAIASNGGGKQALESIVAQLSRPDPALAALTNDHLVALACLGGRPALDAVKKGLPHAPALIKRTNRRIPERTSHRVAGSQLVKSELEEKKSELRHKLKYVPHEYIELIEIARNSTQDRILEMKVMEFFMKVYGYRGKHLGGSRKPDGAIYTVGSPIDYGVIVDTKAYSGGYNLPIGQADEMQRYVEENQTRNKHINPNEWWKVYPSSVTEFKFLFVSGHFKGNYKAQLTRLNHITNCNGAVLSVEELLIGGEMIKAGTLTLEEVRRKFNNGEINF
Experimental: HEK293T cells (ATCC) were cultured in Dulbecco's Modified Eagle Medium (Sigma) supplemented with 10% FBS and 2 mM L-Glutamine. Cells were seeded 80,000 per well of a 24-well plate. After 4 h, cells were transfected with 200 ng of the TALEN plasmid (or 100 ng of each TALEN for hetero-dimeric pairs) and 10 ng of the corresponding SSA reporter plasmid using calcium phosphate transfection. Three control transfections were included: 1) 200 ng of an empty TALEN backbone and 10 ng of an SSA reporter plasmid, 2) 200 ng of an empty TALEN backbone and 10 ng of a pEGFP plasmid, and 3) 100 ng of each GFP-ZFN and 10 ng of an SSA reporter plasmid. Cells were harvested 48 h after transfection. The percentages of pEGFP-transfected samples expressing GFP were determined using an Accuri C6 flow cytometer, as an indication of transfection efficiency. Genomic DNA was isolated using QuickExtract DNA extraction solution (Epicentre) as described20. Sample were PCR amplified for 35 cycles (95° C., 30 s; 60° C., 30 s; 72° C., 60 s) in a 50 μl reaction that contains 2 μl of the extracted DNA, 2.5 μl of each 10 μM target region amplification primer (SSA-Cell-F4, 5′-[…] (SEQ ID NO: 183); SSA-Cell-R4, 5′-[…] (SEQ ID NO: 184)), and 25 μl of GoTaq green master mix (Promega). PCR reactions were then separated on 2% agarose gels and the percentages of SSA-repaired products were quantified using ImageJ.

Molecule “CCACGTTCACCTTGCCCCACAGGGCAGT (double strand) [S-22 half-site]” has an activity [1] of 4.5 % SSA.

With “TGCCCCACAGGGCAGT (double strand) [S-12 half-site]” the activity [2] was 11 % SSA.

In the case of “CACCTTGCCCCACAGGGCAGTA (double strand) [S-08 half-site]”, the activity [3] is reported as 1.9 % SSA.

“GCCTATCAGAAACCCAAGAGTCT (double strand) [S-35 half-site]” gave an activity [4] of 8.1 % SSA.

“ATCAGAAACCCAAGAGT (double strand) [S-36 half-site]” gave an activity [5] of 7.3 % SSA.

“GCCTATCAGAAACCCAAGAGTCTTCTCTGT (double strand) [S-27 half-site]” gave an activity [6] of 3.5 % SSA.

In the case of “GCCTATCAGAAACCCAAGAGTCTTCTCT (double strand) [S-29 half-site]”, the activity [7] is reported as 5.3 % SSA.

Work on “ATCAGAAACCCAAGAGTCTTCTCT (double strand) [S-28 half-site]” yielded an activity [8] of 15.3 % SSA.

Work on “GCCCCACAGGGCAGTAACGGCAGA (double strand) [S-09 half-site]” yielded an activity [9] of 6.2 % SSA.

With “ATTGCTTACATTTGCTTCTGACACAACTGT (double strand) [S-41 half-site]” the activity [10] was 3.1 % SSA.

“GGGTTTCTGATAGGCACTGACTCTCTCT (double strand) [S-39 half-site]” showed an activity [11] of 5 % SSA.

Work on “CAAACAGACACCATGGTGCACCT (double strand) [S-03 half-site]” yielded an activity [12] of 4.9 % SSA.

With “ATCAGAAACCCAAGAGTCT (double strand) [S-34 half-site]” the activity [13] was 14.8 % SSA.

Molecule “CTATTGCTTACATTTGCTTCTGACACAACT (double strand) [S-38 half-site]” has an activity [14] of 3.7 % SSA.

For “ACAAGACAGGTTTAAGGAGACCAAT (double strand) [S-11 half-site]”, the activity [15] was 1.5 % SSA.

In the case of “CTGATAGGCACTGACTCTCT (double strand) [S-17 half-site]”, the activity [16] is reported as 29.2 % SSA.

Work on “CTGATAGGCACTGACTCTCTCTGCCTATT (double strand) [S-21 half-site]” yielded an activity [17] of 21.8 % SSA.

“AGACCACCAGCAGCCT (double strand) [S-23 half-site]” was tested, and the activity [18] was 11.6 % SSA.

“CTTGGGTTTCTGATAGGCACTGACTCTCT (double strand) [S-13 half-site]” showed an activity [19] of 13 % SSA.

In the case of “GCTTACATTTGCTTCTGACACAACTGT (double strand) [S-43 half-site]”, the activity [20] is reported as 4.1 % SSA.

“GCCTATCAGAAACCCAAGAGTCTTCT (double strand) [S-31 half-site]” was tested, and the activity [21] was 9.7 % SSA.

“GCTTACATTTGCTTCTGACACAACT (double strand) [S-42 half-site]” showed an activity [22] of 4.3 % SSA.

“ATTGCTTACATTTGCTTCTGACACAACT (double strand) [S-40 half-site]” was tested, and the activity [23] was 2.5 % SSA.

For “ATCAGAAACCCAAGAGTCTTCTCTGT (double strand) [S-26 half-site]”, the activity [24] was 11.7 % SSA.

With “CAAACAGACACCATGGTGCACCTGA (double strand) [S-04 half-site]” the activity [25] was 2.5 % SSA.

For “ATCAGAAACCCAAGAGTCTT (double strand) [S-32 half-site]”, the activity [26] was 10.5 % SSA.

Molecule “GCTTACATTTGCTTCTGACACAACTGTGT (double strand) [S-44 half-site]” has an activity [27] of 3.2 % SSA.

In the case of “ATCAGAAACCCAAGAGTCTTCT (double strand) [S-30 half-site]”, the activity [28] is reported as 17.9 % SSA.

“CCAAGGGTAGACCACCAGCAGCCT (double strand) [S-24 half-site]” was tested, and the activity [29] was 1.3 % SSA.

“CTGATAGGCACTGACTCTCTCTGCCT (double strand) [S-19 half-site]” showed an activity [30] of 17.2 % SSA.

Molecule “GCCTATCAGAAACCCAAGAGT (double strand) [S-37 half-site]” has an activity [31] of 4.8 % SSA.

For “CTGATAGGCACTGACTCT (double strand) [S-16 half-site]”, the activity [32] was 30.9 % SSA.

“CACCTTGCCCCACAGGGCAGTAA (double strand) [S-06 half-site]” showed an activity [33] of 5.3 % SSA.

Molecule “CTGATAGGCACTGACTCTCTCT (double strand) [S-18 half-site]” has an activity [34] of 26.2 % SSA.

Work on “GCCTATCAGAAACCCAAGAGTCTT (double strand) [S-33 half-site]” yielded an activity [35] of 4.9 % SSA.

For “CTGATAGGCACTGACTCTCTCTGCCTAT (double strand) [S-20 half-site]”, the activity [36] was 16.6 % SSA.

“CTCCACAGGAGTCAGGTGCACCAT (double strand) [S-25 half-site]” was tested, and the activity [37] was 11.1 % SSA.

Molecule “CCTGTGGAGAAGTCTGCCGT (double strand) [S-15 half-site]” has an activity [38] of 3 % SSA.

Work on “GCTTACATTTGCTTCTGACACAACTGTGTT (double strand) [S-10 half-site]” yielded an activity [39] of 8.4 % SSA.

B1: S-05 half-site (dsDNA)
DNA 1: CACCTTGCCCCACAGGGCAGT
DNA 2: ACTGCCCTGTGGGGCAAGGTG
Work on B1 yielded an activity [40] of 6.1 % SSA.
